± gives the uncertainty stated by the source.

Among the data in the Human Domainome abundance scans (Beltran et al. 2025) are abundance fitness values, retold here.

To fix the notation:
B1: Tripartite motif-containing protein 49C, residues 87 to 133; numbered along this chain, P0CI26 (parent)
chain: SSEEQMCGTHRETKKIFCEVDRSLLCLLCSSSQEHRYHRHRPIEWAA

This series covers variants of B1. Description: abundance fitness (aPCA) (normalised: wild type 0, dead -1); higher = more abundant; growth selection in yeast, the domain comes from the species named. The settings on record: Homo sapiens.
SSEEQMCGRHRETKKIFCEVDRSLLCLLCSSSQEHRYHRHRPIEWAA: the abundance fitness is -0.078 ± 0.079.
For the variant SSEEQMCGKHRETKKIFCEVDRSLLCLLCSSSQEHRYHRHRPIEWAA, the abundance fitness came out at 0.185 ± 0.097.
The figure for SSEEQMCGLHRETKKIFCEVDRSLLCLLCSSSQEHRYHRHRPIEWAA is 0.151 ± 0.083; for SSEEQMCGIHRETKKIFCEVDRSLLCLLCSSSQEHRYHRHRPIEWAA it is -0.074 ± 0.12; for SSEEQMCGQHRETKKIFCEVDRSLLCLLCSSSQEHRYHRHRPIEWAA it is 0.057 ± 0.1.
Consider SSEEQMCGYHRETKKIFCEVDRSLLCLLCSSSQEHRYHRHRPIEWAA, for which the abundance fitness is -0.183 ± 0.14.
The figure for SSEEQMCGDHRETKKIFCEVDRSLLCLLCSSSQEHRYHRHRPIEWAA is -0.395 ± 0.16.
The figure for SSEEQMCGSHRETKKIFCEVDRSLLCLLCSSSQEHRYHRHRPIEWAA is -0.127 ± 0.09.
Regarding SSEEQMCGHHRETKKIFCEVDRSLLCLLCSSSQEHRYHRHRPIEWAA, the abundance fitness is -0.153 ± 0.17.
With SSEEQMCGMHRETKKIFCEVDRSLLCLLCSSSQEHRYHRHRPIEWAA the figure was -0.265 ± 0.099; with SSEEQMCGAHRETKKIFCEVDRSLLCLLCSSSQEHRYHRHRPIEWAA, -0.235 ± 0.091.
Take SSEEQMCGCHRETKKIFCEVDRSLLCLLCSSSQEHRYHRHRPIEWAA: the abundance fitness is -0.565 ± 0.26.
The figure for SSEEQMCGWHRETKKIFCEVDRSLLCLLCSSSQEHRYHRHRPIEWAA is -0.339 ± 0.12; for SSEEQMCGFHRETKKIFCEVDRSLLCLLCSSSQEHRYHRHRPIEWAA it is -0.469 ± 0.23; for SSEEQMCGPHRETKKIFCEVDRSLLCLLCSSSQEHRYHRHRPIEWAA it is -0.503 ± 0.1.
Take SSEEQMCGVHRETKKIFCEVDRSLLCLLCSSSQEHRYHRHRPIEWAA: the abundance fitness was 0.047 ± 0.077.
With SSEEQMCGNHRETKKIFCEVDRSLLCLLCSSSQEHRYHRHRPIEWAA the figure was -0.417 ± 0.2; with SSEEQMCGGHRETKKIFCEVDRSLLCLLCSSSQEHRYHRHRPIEWAA, -0.556 ± 0.091; with SSEEQACGTHRETKKIFCEVDRSLLCLLCSSSQEHRYHRHRPIEWAA, -0.575 ± 0.11.
Turning to SSEEQQCGTHRETKKIFCEVDRSLLCLLCSSSQEHRYHRHRPIEWAA, the abundance fitness is -0.273 ± 0.11.
With SSEEQGCGTHRETKKIFCEVDRSLLCLLCSSSQEHRYHRHRPIEWAA the figure was -0.553 ± 0.099; with SSEEQFCGTHRETKKIFCEVDRSLLCLLCSSSQEHRYHRHRPIEWAA, -0.769 ± 0.19.
With SSEEQVCGTHRETKKIFCEVDRSLLCLLCSSSQEHRYHRHRPIEWAA the figure was -0.21 ± 0.089.
Regarding SSEEQKCGTHRETKKIFCEVDRSLLCLLCSSSQEHRYHRHRPIEWAA, the abundance fitness is -0.581 ± 0.14.
In the case of SSEEQICGTHRETKKIFCEVDRSLLCLLCSSSQEHRYHRHRPIEWAA, the abundance fitness was -0.855 ± 0.16.
With SSEEQDCGTHRETKKIFCEVDRSLLCLLCSSSQEHRYHRHRPIEWAA the figure was -0.875 ± 0.24.
The figure for SSEEQCCGTHRETKKIFCEVDRSLLCLLCSSSQEHRYHRHRPIEWAA is -0.568 ± 0.17; for SSEEQSCGTHRETKKIFCEVDRSLLCLLCSSSQEHRYHRHRPIEWAA it is -0.57 ± 0.12.
Regarding SSEEQNCGTHRETKKIFCEVDRSLLCLLCSSSQEHRYHRHRPIEWAA, the abundance fitness is -0.958 ± 0.3.
The figure for SSEEQWCGTHRETKKIFCEVDRSLLCLLCSSSQEHRYHRHRPIEWAA is -0.651 ± 0.15.
With SSEEQTCGTHRETKKIFCEVDRSLLCLLCSSSQEHRYHRHRPIEWAA the figure was -0.414 ± 0.12; with SSEEQLCGTHRETKKIFCEVDRSLLCLLCSSSQEHRYHRHRPIEWAA, -0.13 ± 0.1.
Turning to SSEEQRCGTHRETKKIFCEVDRSLLCLLCSSSQEHRYHRHRPIEWAA, the abundance fitness is -0.338 ± 0.092.
On to SSEEQYCGTHRETKKIFCEVDRSLLCLLCSSSQEHRYHRHRPIEWAA, for which the abundance fitness was -0.344 ± 0.16.
In the case of SSEEQHCGTHRETKKIFCEVDRSLLCLLCSSSQEHRYHRHRPIEWAA, the abundance fitness is -0.215 ± 0.19.
Take SSEEQMCFTHRETKKIFCEVDRSLLCLLCSSSQEHRYHRHRPIEWAA: the abundance fitness is 0.229 ± 0.13.
With SSEEQMCCTHRETKKIFCEVDRSLLCLLCSSSQEHRYHRHRPIEWAA the figure was -0.017 ± 0.1; with SSEEQMCVTHRETKKIFCEVDRSLLCLLCSSSQEHRYHRHRPIEWAA, -0.02 ± 0.085.
Take SSEEQMCTTHRETKKIFCEVDRSLLCLLCSSSQEHRYHRHRPIEWAA: the abundance fitness was -0.042 ± 0.11.
With SSEEQMCWTHRETKKIFCEVDRSLLCLLCSSSQEHRYHRHRPIEWAA the figure was -0.199 ± 0.094; with SSEEQMCKTHRETKKIFCEVDRSLLCLLCSSSQEHRYHRHRPIEWAA, -0.02 ± 0.11.
As to SSEEQMCHTHRETKKIFCEVDRSLLCLLCSSSQEHRYHRHRPIEWAA, the abundance fitness is -0.468 ± 0.16.
The figure for SSEEQMCDTHRETKKIFCEVDRSLLCLLCSSSQEHRYHRHRPIEWAA is -0.022 ± 0.11; for SSEEQMCLTHRETKKIFCEVDRSLLCLLCSSSQEHRYHRHRPIEWAA it is -0.009 ± 0.086.
The figure for SSEEQMCNTHRETKKIFCEVDRSLLCLLCSSSQEHRYHRHRPIEWAA is -0.159 ± 0.15; for SSEEQMCMTHRETKKIFCEVDRSLLCLLCSSSQEHRYHRHRPIEWAA it is 0.131 ± 0.096.
With SSEEQMCYTHRETKKIFCEVDRSLLCLLCSSSQEHRYHRHRPIEWAA the figure was -0.082 ± 0.15; with SSEEQMCQTHRETKKIFCEVDRSLLCLLCSSSQEHRYHRHRPIEWAA, -0.104 ± 0.14.
For the variant SSEEQMCSTHRETKKIFCEVDRSLLCLLCSSSQEHRYHRHRPIEWAA, the abundance fitness is -0.086 ± 0.089.
Consider SSEEQMCATHRETKKIFCEVDRSLLCLLCSSSQEHRYHRHRPIEWAA, for which the abundance fitness is -0.005 ± 0.085.
The figure for SSEEMMCGTHRETKKIFCEVDRSLLCLLCSSSQEHRYHRHRPIEWAA is 0.054 ± 0.12; for SSEELMCGTHRETKKIFCEVDRSLLCLLCSSSQEHRYHRHRPIEWAA it is -0.044 ± 0.094.
With SSEEVMCGTHRETKKIFCEVDRSLLCLLCSSSQEHRYHRHRPIEWAA the figure was -0.009 ± 0.096; with SSEEKMCGTHRETKKIFCEVDRSLLCLLCSSSQEHRYHRHRPIEWAA, 0.165 ± 0.16.
With SSEEIMCGTHRETKKIFCEVDRSLLCLLCSSSQEHRYHRHRPIEWAA the figure was -0.291 ± 0.27.
